Source: the RNAGym collection of RNA variant scans (doi:10.7554/elife.80360)

B1: Hammerhead Ribozyme (parent)
chain: ACCGGAUGUGCUUUCCGGUCUGAUGAGUCCGUGAGGACGAAACAG

Variants of: B1
Assay: self-cleavage, relative activity (ratio to wild type); higher = more cleavage; co-transcriptional

Variant | self-cleavage
C11G U32C | 1.12
G17C U21G | 0.352
G8A G17C | 0.493
A6G U14C | 0.704
U12C G31A | 0.871
G25A C38A | 0.379
U12G C15A | 1.09
U28C U32C | 1
U7A G27U | 0.32
G10U A34C | 1.13
G10U A34G | 0.942
C11U C29A | 0.329
C2G A34G | 0.279
U21C A34G | 0.653
G22U U24G | 0.361
C2A U28G | 0.308
C30G C43U | 0.276
G31U G39U | 0.353
A41C A42C | 0.375
G36A C43A | 0.383
A6G A23G | 0.272
U14A A40U | 0.237
A26U A42C | 0.293
G17U G18A | 0.419

Variant | self-cleavage
G4U U28C | 0.266
G4U U28G | 0.308
G4U U28A | 0.234
U13A U32C | 1.24
A23C U24A | 0.397
G4U G10C | 0.469
C29A A42U | 0.374
C2U A37G | 1.01
A1G U12A | 1.63
G27C C30A | 0.401
C30G C38G | 0.493
G27U | 0.561
C15U A34G | 0.813
C15U A34C | 0.98
C2G C43A | 0.328
C16U A23G | 0.423
U13C G18A | 0.955
U28G G33U | 0.972
A34U G36A | 0.437
U12C G35C | 0.617
U28C C38G | 0.575
U13G A34C | 0.79
G5U G45U | 0.529
G8U U24G | 1.11

Variant | self-cleavage
A34U A41G | 0.305
C29U A44C | 0.44
U13G G17A | 0.876
G27A A37C | 0.743
U19G A41U | 0.342
C30U A42U | 0.328
A6G G31A | 0.853
G18A U32G | 0.744
G33C G35C | 0.858
G8U G45A | 0.744
U7G U32G | 0.796
G18U U24G | 0.607
U9C A34C | 0.94
U14A A34U | 0.903
C11G C43G | 0.29
A37C C43G | 0.28
G5A U21G | 0.378
C11G U19G | 0.42
G25A G36C | 0.302
C16G C20U | 0.408
A34G A42G | 0.264
U14G A23U | 0.256
U13A U28A | 1.1
C11G C15G | 0.88

Variant | self-cleavage
C38A A40C | 0.411
C16G G18U | 0.744
A1G A37U | 1.02
U28G C30A | 0.408
G10C A42U | 0.277
C11G G18A | 0.553
U19G G39C | 0.297
U12G U32A | 0.696
G5A G22C | 0.315
C11A A40C | 0.587
C20G G27U | 0.265
C20G G27A | 0.381
C20A G25C | 0.287
U13C G31C | 1.13
G5C C30U | 0.539
U21G U32A | 0.389
U14A C15G | 0.722
G4C G8A | 0.543
A23G C38U | 0.394
C2G U19C | 0.308
G25U G36A | 0.365
U12G C16U | 0.968
U12G C16A | 1.18
U12G C16G | 0.714

Variant | self-cleavage
G4U C20A | 0.294
U24C A26U | 0.559
C16G | 1.02
G17C G27C | 0.354
U24C A41C | 0.305
G17A A34G | 0.56
G17A A34C | 0.562
C16G A42U | 0.26
A1C G27A | 0.332
G4C G31A | 0.939
C3U A34G | 0.91
G5A G39C | 0.328
G33U A42C | 0.366
A34G C43G | 0.471
G17A U21G | 0.39
C30G A42C | 0.306
A6U A41U | 0.282
C16A G33C | 1.24
A34G A37C | 0.649
G10U A37C | 0.934
C20U G22C | 0.377
C16U G45U | 0.688
G8U G22C | 0.354
G8U G22A | 0.37

Variant | self-cleavage
G8U A42G | 0.367
C16G C38U | 0.619
G18C A26U | 0.334
C15G C38G | 0.386
G33A A34U | 0.873
U9A C15G | 0.758
C20A G45U | 0.357
G36A | 0.733
C11A G45A | 0.778
C2G C15U | 0.304
G25C G35C | 0.355
A26U C43G | 0.415
U9C U28A | 0.717
G22A C38A | 0.327
G5A U19C | 0.565
G25C A34C | 0.29
G5A C43U | 0.467
U9G G27C | 0.455
C2U U14G | 1.11
G27U A34C | 0.32
G18A | 0.831
C11G G22C | 0.338
U7C G10U | 1.12
U7C G31A | 1.12

Variant | self-cleavage
U9A U19A | 0.291
C20A C43G | 0.25
A6C G8C | 0.916
G22C A26U | 0.343
C38A A42G | 0.263
U24A C29A | 0.786
G4U U32A | 0.507
U19G A23U | 0.23
C29U | 0.947
G10A A41G | 0.359
U13C U32A | 0.668
G22U G33U | 0.416
A6C U28A | 0.191
C16U A26G | 0.358
C2A C20U | 0.372
G22A A37G | 0.285
C16G A40G | 0.431
G25C A44C | 0.29
C2G G36U | 0.325
U19A U28A | 0.368
U14A C38G | 0.574
G25C A40C | 0.359
C3A C11U | 0.358
